Data on one molecule can be found in US20170152313A1 (Novartis, published 2017).

The target in assay [1] is T1, Human LOX-1 full-length protein (human, UniProt P78380 1-273).
T1 construct: also called huLOX-1/HEK293 cells; human LOX-1 transfected HEK293 cells
Briefly: flow cytometry, biotinylated antibody on primary human neutrophils, PE-streptavidin. The procedure:
The resulting cell suspension was carefully transferred to a 50 mL conical tube containing 10 mL Ficoll-Paque, layering the cell suspension on top of the Ficoll-Paque, and the tube was then centrifuged at 1400 rpm (400×g) for 30 minutes at room temperature. The top layer was the discarded. To the resulting cell pellet, 10 mL 0.2% ice-cold sodium chloride was added, and the mixture was incubated for exactly 30 seconds to lyse red blood cells; 10 mL of ice-cold 1.6% sodium chloride was added to restore isotonicity. The cell suspension was then centrifuged at 1200 rpm ([…]) for 5 minutes. The supernantant was then discarded, and the red blood cell lysis procedure repeated once more. The resulting cell pellet was resuspended in FACS buffer (2 mM EDTA, 1% BSA, and 0.2% sodium azide in PBS) at a cell density of 2×10⁶ cells/mL.
The cell suspension containing freshly isolated human neutrophils was transferred (50 ul/well) to wells of a 96-well V-bottom plate (1×10⁵ cells/well) (Costar, catalog number 3894). Blocking buffer (4% normal rabbit serum diluted in FACS buffer (2 mM EDTA, 1% BSA, and 0.2% sodium azide in PBS) (50 ul/well) was added and the plate was incubated on ice for 30 minutes. Biotinylated LOX-1 antibody (10 μl) in FACS buffer was then added to the wells at final concentrations ranging from 1 ng/ml to 5 ug/mL, and the plate was incubated on ice for 30 minutes. The plate was then centrifuged at 1200 rpm (250-300×g) for 3 minutes and supernatant was discarded. The cells were then washed twice with 0.2 mL FACS buffer, and then 0.1 mL of PE-streptavidin (BD Pharmingen catalog number 554061) diluted at 1:250 in FACS buffer was added, and the plate incubated on ice for 30 minutes. The plate was then centrifuged again, supernatant discarded, and the cells washed twice with 0.2 mL FACS buffer. Cells were then resuspended in 0.1 mL of fixing buffer (FACS buffer with 2% paraformaldehyde) and analyzed using a FACS instrument. To determine an EC50 value for neutrophil binding by LOX-1 antibodies, the LOX-1 staining intensity determined by FACS was plotted vs. the concentration of the antibody as shown in FIG. 5 and Table 3.

Assay [2] addresses T1, Human LOX-1 full-length protein. Description: flow cytometry, inhibition of dil-OxLDL binding to huLOX-1/HEK293 cells. As to the method:
The huLOX-1/HEK293 cells were resuspended at 1×10⁶ cells/mL and seeded 50 μL per well into a 96-well V-bottom plate (5×10⁴ cells per well). LOX-1 or irrelevant control antibodies in assay medium (DMEM+10% FBS) were then added to the cells. Typical final antibody concentrations ranged from 0.006 μg/mL to 20 μg/mL. The cells were incubated at 37° C. for 1 hour, then washed twice with warm HBSS. Dil-oxLDL (human dil-labeled “High Oxidized” LDL, Kalen Biomedical, catalog number 770262-9; Dil is 1,1′-dioctadecyl-3,3,3′,3′-tetramethylindocarbocyanine perchlorate) in 50 ul assay medium was then added to a final concentration 30 to 100 μg/mL. The cells were then incubated at 37° C. for 2 hours, and then washed twice with FACS buffer (2% FBS in PBS). Cells were then analyzed for intensity of Di-I fluorescence by flow cytometry, as depicted in FIG. 2 and Table 3.

Assay [3] has as its target T2, APP-Avi-soluble cynomolgus monkey LOX-1 (61-273) (cynomolgus monkey, biotinylated at the Avi tag when immobilised in the SET assay).
T2 construct: Expressed and purified in the same way as the human protein; also called cynomolgus monkey soluble LOX-1; Cynomolgus Monkey Soluble APP-Avi-LOX-1
Briefly: SPR Biacore T200, antibody captured by anti-mouse IgG, cynomolgus soluble LOX-1 as analyte, 1:1 model. As to the method: For murine LOX-1 antibody E2E10 binding to human and cynomolgus monkey LOX-1, a Biacore T200 was primed with fresh, filtered running buffer (1×HBS-EP+(GE catalog number BR-1006-60)). A CM5 chip (GE catalog number BR-1005-30) was prepared using a mouse antibody capture kit (GE catalog number BR-1008-38) and an amine coupling kit (GE catalog number BR-1000-50). Briefly, a new chip was activated with EDC/NHS at 10 ul/min for 420 sec. Anti-mouse IgG antibody was immobilized at […] 10 mM acetate pH 5.0 at 10 ul/min for 420 sec. The chip surface was deactivated with 1M ethanolamine solution (10 ul/min for 420 sec) and then conditioned three times with 10 mM Glycine-HCl, pH 1.5 (GE catalog number BR-1003-54) at 60 ul/min for 30 sec.
For sample cycles, 1) Ms-anti-Hu LOX-1 mAb was captured on flow cell 2, 3, or 4 for a pre-determined amount of time that allowed for capture of approximately 20RUs at 10 ul/min. Flow cell 1 was used as a reference, 2) running buffer for 30s at 60 ul/min, 3) human soluble LOX-1 or cynomolgus monkey soluble LOX-1 diluted in running buffer at various concentrations (with at least two duplicate samples and multiple buffer blanks for 350 sec at 60 ul/min, with either 750 sec or 3000 sec dissociation time), 4) regeneration buffer for 60 sec at 60 ul/min, 5) running buffer for 35s at 60 ul/min, extra wash with running buffer and including a carry-over control. Data were analyzed using buffer blanks, reference blank, and a 1:1 binding model for curve fitting in order to determine association and dissociation rate constants (ka and kd) and equilibrium binding constants (KD) (see results for E2E10 in Tables 7-8).

The target in assay [4] is T1, Human LOX-1 full-length protein. Description: cell-based or functional assay.

T2 sequence (chain, as listed by the source): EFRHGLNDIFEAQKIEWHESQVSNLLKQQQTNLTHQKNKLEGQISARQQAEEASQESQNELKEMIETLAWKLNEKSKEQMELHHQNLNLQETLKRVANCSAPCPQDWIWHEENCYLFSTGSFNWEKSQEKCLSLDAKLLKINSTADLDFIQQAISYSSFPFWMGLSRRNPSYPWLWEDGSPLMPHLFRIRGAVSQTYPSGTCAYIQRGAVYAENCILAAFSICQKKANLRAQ

B1: E2E10 (murine parental) (antibody, IgG1, V domains shown)
VH: QVQLQQSGAELVRPGASVKLSCKALGYTFTDYEMHWVKQTPVHGLEWIGAIHPGSGGAAYIQKFKGKATLTADKSSSTAHMELSSLTSEDSAVYYCTRWLPMDYWGQGTSVTVSS
VL: DIQMTQSSSYLSVSLGGRVTITCKASDHINNWLAWYQQKPGNAPRLLISGATSLETGVPSRFSGSGSGKDYTLSITGLQTEDVATYYCQQYLITPYTFGGGTKLEIK
notes: Mouse hybridoma monoclonal antibody, IgG1 with a kappa light chain; Biotinylated in the SET and neutrophil assays; also called Clone 39.1E2E10; mouse parental
Regarding B1, the EC50 in assay [1] is 0.04 µg/mL. Moreover, the IC50 in assay [2] turned out to be 4 nM. In assay [3], this molecule had a Kd of 0.015 nM, a koff of 2.5e-05 s⁻¹ and a kon of 1.7e+06 M⁻¹ s⁻¹. In assay [4], the “Reactive oxygen species (ROS) generation in huLOX-1/HEK293 cells (IC50, nM)” value was found to be 5.7 nM.
